The record followed here is the supplement of paper PMC9170038.

The data set concerns MS2 coat protein. The data set can be described thus: apparent KD of MS2 coat protein; designed switch direction (-1 OFF switch, 1 ON switch): -1; higher = weaker reporter binding. In a few lines:
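The reported apparent KD is a per-design median over clusters, from curve fits of normalised cluster fluorescence. Protein titrations used SNAP-549-labelled MS2 coat protein, doubled from 0.7 or 1.5 nM to 3 µM, in Tris-HCl pH 7.5 buffer with KCl, MgCl2, BSA, DTT, tRNA and Tween-20, with no input, 200 uM small-molecule ligand, or an oligonucleotide input. The RNA switches were transcribed on Illumina chips by stalled E. coli RNA polymerase.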

Setting [1] is: input ligand: microRNA oligo, concentration not stated.
The mark [2] stands for this setting: Eterna round: R95, input ligand: FMN 200 uM.
The mark [3] stands for this setting: Eterna round: R95, input ligand: microRNA oligo, concentration not stated.
The mark [4] stands for this setting: Eterna round: R95, input ligand: none.

Turning to “CGCGCGCGUGUAGGAUAUGUGUUUGGUUCGGGCGCAGAAGGACAUGAGGAUCACCCAUGUGUGUGUGUGCGCGCAGUGUGUGCG [-30, -27 kcal, 15% A] (Eterna round: R96, puzzle: Exclusion NG 1)”, the “apparent KD of MS2 coat protein” value was 55 nM (input ligand: FMN 200 uM), 32.7 nM under setting [1] and 41.7 nM (input ligand: none).

Take “CGCUAAGCUAUGCUCGUCAACAUGAGGAUCACCCAUGUGCACUACGGAAGGUACACAACGUACCAAAGACCUCAAAG [Eternabot (Original) Solution 27] (Eterna round: R97, puzzle: Sensor, turn-off variant 1)”: the “apparent KD of MS2 coat protein” value by setting is: (input ligand: FMN 200 uM) 185 nM; (input ligand: none) 119 nM.

Turning to “CGCUGGACAGGAUAUGUUCUUGGGCACUUGAGGAUCACCCAAGUCAUCAAGAAAUCAGGCACAGAAGGGUUUAUGG [salish99_ex5_r4_021] (Eterna round: R97, puzzle: Exclusion 5)”, the “apparent KD of MS2 coat protein” value is 18.7 nM (input ligand: FMN 200 uM) and 19.9 nM (input ligand: none).

With “CGGAAAUCCUAGGAUAUGCUAGACGAAAGUCUAGCAGAAGGAGGAACAUGAGGAUCACCCAUGUGUCCUAUCCG [Mat - Exclusion 6 - Eli Mod - D16] (Eterna round: R97, puzzle: Exclusion 6)”, the “apparent KD of MS2 coat protein” value was 26 nM (input ligand: FMN 200 uM) and 17.1 nM (input ligand: none).

In the case of “CGGAGCGUGGGUAGGUGCAACAUGAGGAUCACCCAUGUCUCACAAGCUUUUUGCUCAUCUUAUUGUACCUUGGUGCU [Sensor v3, turn-off variant 1 (MOD of JL v.2)] (puzzle: Sensor v3, turn-off variant 1)”, the “apparent KD of MS2 coat protein” value by setting is: under setting [2], 130 nM; under setting [3], 12.3 nM; under setting [4], 146 nM.

In the case of “CGGAUACAUGAGGAUCACCCAUGUGAGGAUAUCGUACGUUCGUCGAAAGACGAUCGUACGAGAAGGCAUGACCG [Eli x1 4.36] (Eterna round: R97, puzzle: Exclusion 1)”, the “apparent KD of MS2 coat protein” value is 64 nM (input ligand: FMN 200 uM) and 113 nM (input ligand: none).

For “CGGAUGUGAGGAUAUACAUGAGGAUCACCCAUGUGAGCCAGCUAGCUGACUGGCUCAUGUAGAAGGCACGUCUG [JL-ex3-2.15 Brourd mod] (puzzle: Exclusion 3)”, under setting [3], the “apparent KD of MS2 coat protein” value worked out at 42.2 nM.

“CGGCCGCAAGUCAGGAUAUGGACCUGCUUGGAGGACCAGAAGGGACAUGAGGAUCACCCAUGUGAUGAAAUAAA [BmEX4 A.24] (Eterna round: R97, puzzle: Brourd's mod of Exclusion 4)”: the “apparent KD of MS2 coat protein” value by setting is: (input ligand: FMN 200 uM) 37.8 nM; (input ligand: none) 28.3 nM.

As to “CGGCUGUGAGGAUAUGCCAGGCCGGGCACUCCGCCGCCAGCGCAGAAGGCACAUGAGGAUCACCCAUGUCAAAG [Eternabot (L2) Solution 82] (Eterna round: R97, puzzle: Exclusion 4)”, the “apparent KD of MS2 coat protein” value was found to be 27.5 nM (input ligand: FMN 200 uM) and 23.9 nM (input ligand: none).

Take “CGUACUGAAGUGAGGAUAUUGUCUCGGAUACGAAACAAGAAGGCACAUGAGGAUCACCCAUGUAGACAGUACGA [Malc #30 mod 2] (puzzle: Brourd's mod of Exclusion 4)”: the “apparent KD of MS2 coat protein” value under setting [2] is 15.1 nM, the “apparent KD of MS2 coat protein” value under setting [3] turned out to be 17.3 nM and the “apparent KD of MS2 coat protein” value under setting [4] came out at 15.7 nM.

With “CGUAUCUUUCACGUGAGUAGUGGGUGCAACAGGUGGGUUACAUGAGGAUCACCCAUGUACUCACUUGCUCGUCUUAU [Grok-var2-06] (puzzle: Sensor v3, turn-off variant 2)”, the “apparent KD of MS2 coat protein” value is 38 nM under setting [2], 23.4 nM under setting [3] and 34.3 nM under setting [4].

For “CGUCAGUCAGGAUAUACUUACGUAGACAUGAGGAUCACCCAUGUGACGUGGGACUGGUGAGUAGAAGGGACGAACA [EX5 #76] (Eterna round: R97, puzzle: Exclusion 5)”, the “apparent KD of MS2 coat protein” value stood at 27.3 nM (input ligand: FMN 200 uM) and 18.1 nM (input ligand: none).

For the sequence “CGUCCACAUGAGGAUCACCCAUGUUAGGAUAUAAACGCCGUAGUCCAAGGACGGGCCUUUAGAAGGAGCGCGGG [Onaredgeso] (puzzle: Exclusion 1)”, the “apparent KD of MS2 coat protein” value under setting [3] stood at 12.3 nM.

Take “CGUCUGUAAGGAUAUGGUUACAUAGACAUGAGGAUCACCCAUGUGACGUGGGACUAGUGAUUAGAAGGUACGAACG [EX5 #66] (Eterna round: R97, puzzle: Exclusion 5)”: the “apparent KD of MS2 coat protein” value is 77 nM (input ligand: FMN 200 uM) and 78.6 nM (input ligand: none).

Regarding “CGUCUGUCAGGAUAUACUUACGUAGACAUGAGGAUCACCCAUGUGACGUGGGACUAGUGAGUAGAAGGGACGAACA [EX5 #74] (Eterna round: R97, puzzle: Exclusion 5)”, the “apparent KD of MS2 coat protein” value (input ligand: FMN 200 uM) was 68.4 nM and the “apparent KD of MS2 coat protein” value (input ligand: none) is 46.7 nM.

As for “CGUCUGUGAGGAUAUGGUAUCGUUUACAUGAGGAUCACCCAUGUUACAUGGGACUAGAGACUAGAAGGUACGAACG [EX5 #49] (Eterna round: R97, puzzle: Exclusion 5)”, the “apparent KD of MS2 coat protein” value amounted to 212 nM (input ligand: FMN 200 uM) and 320 nM (input ligand: none).

For the sequence “CGUGCGUAUGUGAGGAUAUGCUGGUCCUUGGAUCGGCAGAAGGCACAUGAGGAUCACCCAUGUGGUGUCGUACC [salish99_Bmod_ex4_074] (puzzle: Brourd's mod of Exclusion 4)”, the “apparent KD of MS2 coat protein” value under setting [3] stood at 123 nM.

Take “CGUGCGUAUGUGAGGAUAUGCUGGUCCUUGGAUCGGCAGAAGGCACAUGAGGAUCACCCAUGUGGUGUCGUACU [salish99_Bmod_ex4_081] (puzzle: Brourd's mod of Exclusion 4)”: the “apparent KD of MS2 coat protein” value under setting [3] was 216 nM.

As to “CGUGCGUAUGUGAGGAUAUGCUGGUCCUUGGAUCGGCAGAAGGCACAUGAGGAUCACCCAUGUGGUGUCGUUCG [salish99_Bmod_ex4_093] (puzzle: Brourd's mod of Exclusion 4)”, the “apparent KD of MS2 coat protein” value under setting [3] is 126 nM.

Take “CGUGUAGGAGUAGGAUAUGCGUCUAGACUACGAGCAGAAGGACUCCAGGACUUGAGGAUCACCCAAGUGCGUCCCGAGCCGUAG [Mutated MS2 EX1.23] (Eterna round: R96, puzzle: Exclusion NG 1)”: the “apparent KD of MS2 coat protein” value (input ligand: FMN 200 uM) is 11.9 nM, the “apparent KD of MS2 coat protein” value under setting [1] was determined as 11.7 nM and the “apparent KD of MS2 coat protein” value (input ligand: none) was found to be 12 nM.

As for “CUAAAUCAUGUAGGAUAUGCAUAGCGAAGCUAUGCAGAAGGACAUGAGGAUCACCCAUGUUCUUCCGUCUGAGAACAGACGGAA [Mat - Exclusion NG 1 - Mod of JL - D32] (Eterna round: R96, puzzle: Exclusion NG 1)”, the “apparent KD of MS2 coat protein” value (input ligand: FMN 200 uM) was found to be 164 nM, the “apparent KD of MS2 coat protein” value under setting [1] stood at 21.1 nM and the “apparent KD of MS2 coat protein” value (input ligand: none) worked out at 32.5 nM.

In the case of “CUAAAUCAUGUAGGAUAUGCAUAGCGAAGCUAUGCAGAAGGACAUGAGGAUCACCCAUGUUCUUCCGUCUGAGUACAGACGGAA [Mat - Exclusion NG 1 - Mod of JL - D31] (Eterna round: R96, puzzle: Exclusion NG 1)”, the “apparent KD of MS2 coat protein” value runs as follows: (input ligand: FMN 200 uM) 288 nM; under setting [1], 30.6 nM; (input ligand: none) 34.1 nM.

With “CUAACAUGCUGGUGAUCAUACAUGAGGAUCACCCAUGUAACAAGCUUUUUGCUCGUCUUAUAAGAUUACUAGUAUGU [Stov1/10-A4] (Eterna round: R97, puzzle: Sensor, turn-off variant 1)”, the “apparent KD of MS2 coat protein” value (input ligand: FMN 200 uM) turned out to be 21.4 nM and the “apparent KD of MS2 coat protein” value (input ligand: none) was found to be 21.9 nM.
